According to the DeepSol protein solubility set:

Test: soluble on expression in E. coli; label from the status in PepcDB or PDB records
In the case of “MKISLVTVTFNSAKTLCDTIHSVLSQSYTNIEYIIVDGLSNDETVTLIKEYEPLFQGRLKWISEKDKGLYDAMNKGIRMSTGDIVGIINSDDFYHRGDVLEKVAESFEAGETEAIYGDVRFVNPDNLDRTVRYYSSKRFVPSLFRFGFMPAHPTFFTYRKYFDQFGYYKTNYKIAADYELLVRFLYVHRLKSKYLPLDFMKMRTGGASTASIKSNILLNKEIVRACKENGIWTCYPLLLLKYLVKVFELIFIKKLEHHHHHH”, the “soluble on expression in E. coli” value is reported as “soluble”. With “MYKQILVPVDLNDQGFSDRAVELAVWQAKQANAEIHLLTVLPGIHMSMVATYFPKDAAAKMKQDVKQQLKAFASEHIDDEVIYKVHVAEGKAYATILDYAERLGADLIIMPSHKRSKINKVMLGSVASKVVEYSPINVMVVKPQG” the “soluble on expression in E. coli” value was “not soluble”. With “SLGWQISRFNRAFDTLCQQGRVGVGRSSGRFKPRVVVAIALDDQQRIVDTLFMKGLTVFARPQKIPAITGMHAGDLQPDVIFPHDPLSQNALSLALKLKRG” the “soluble on expression in E. coli” value was “soluble”. In the case of “MDCVVGRKNSAAVLLVLSERKTREEIILKLPDKTQESVIKAIDELERKYRRKFREKFKTITVDNGTEFLDYRGIEKSKTEPGKDRTKVYYAHPYSSWERGTNENINKLIRRFIPKGTDISKVSKAKIKSIERWINEYPRRMFGYRSAIEMAV”, the “soluble on expression in E. coli” value is reported as “soluble”. With “MTHNHHHQAVDNLLNVFSRASHDLTVVHSKLDKEFQQMYPANANPMKLIQRIKKLQEDVTLLKHQCLDLLSAKQDLIDKAQTTLVGNCNLIQKMNASLGESTNGDTDDALADFNQIIDEWTMQVRSRTVGETEDADKEDINKMLFSAICHTN” the “soluble on expression in E. coli” value was “soluble”. For “LPAYEKQVEVVEKDLEQVHICLGTKAFPQNHPRRFEVYLVNTLLGGSMSSRLFQEIRERLGLAYSVYSYVVSHTDAGSLVVYVGTSPEKLDDVLDITVAELKRLKTELVPLPELESAKEQIKGSIYLSLESSDNRMTKLAKNEIYFGRYIPIHELADGFDSVTSRGILELAGEIFDERYLTLALMGKIDSAAFDVSRLAL”, the “soluble on expression in E. coli” value was “not soluble”. For “MAHHHHHHMKGNKGANIAYPDKYHKVTEFFDREYGDLETCTKLNDCQKLLFYALRQQVEHGPCTSGAPFIWQVRERAKHDAWKQLGAMTKFEAMVHFVTHLEECIGGNVDWGEKLRDLNGMRDQQRVGVENGTGESNANEQTERGVSEAHWDADVQAHLQPSAENIEYLAREVMRLRGELQQVRPNRVVPTPIVVPPRKPIDYVSTKNIVPPARTLATVATRTALLNAQTTNNLVERQPQGWGEWFGLI”, the “soluble on expression in E. coli” value was “soluble”. In the case of “GLNMYVAGKATLNYLFERYMDTKYNLRENTKVNYKYMYDNYVRNTIGKRLIADIKYSDIVYFYKSLITEKGLELNTVDTIHTVIHPVFSMAVRDDVIRKNPASGVLADIKKESGKNKGIRHALTIEQQRVFMKYMIEEEQFNHWIPIFTILLGTGCRVGEFIGLRWEDVDFKQKVISINHSIAYVCYGKEDGRKSHYAISLPKTEAGIRYIPMTDEVYDVFKAEYYRQQENGFSQFSIEGMSGFIFTNRCGRIYNQQTLNKGLKRISENYNQKELIDA”, the “soluble on expression in E. coli” value is reported as “not soluble”. With “MGSDKIHHHHHHMIRFHIQADSDIPASTQLYNQIHFAIASRQYPPGHKLPSTRQLAMQTGLHRNTISKVYRLLEEDGVVEAQAGSGIYVRGGNDPRETAKSQRLRKQYPDIDQQIRDHIDTLLQQGCSLAEIRELFLAEVDWRLRCSASVLVTAPLQDLGAAELMYRELSQALGVPVEVVPLEELGAILKQKDSGTVVTSHYFFQDAEAITASLGARTIALDLYDYREELSFLSQQKEGSCIGIVSISPGILRAAEIIIHSLRGEALLIMSCQPNDQTKLEAMLRSASVIICDQSSIDNVKQRVSAIRDDLIRLPRLLCSKSYISEASIALLKRELGLN” the “soluble on expression in E. coli” value was “not soluble”. In the case of “MPTDIFSFKQFDIDQTGCAMRVGTDGVLLGAWAGEDAAGSIPQHCLDIGTGTGLIALMLAQRFPQARVQGIEIDPIAAECARANAAASPFSDRIVIASGDILDSSLESLIGNQRFDLIVSNPPFFKSSMHAPDRQRTMARHEETLPLEKLICRASELLSPQGRLALITPRDRLKDLRLYAATYRLVSSRLTEVRTLPHKEPKRLLSEWRPADTAIDRSPFTDTLIIHPATGYYSPEYVRLTEPFYTTSFRILAVG”, the “soluble on expression in E. coli” value is reported as “soluble”. In the case of “MGSDKIHHHHHHMEYVIEMNNITKVFPGIVANDDITLQVKQGEIHALLGENGAGKSTLMNVLFGLYQPEQGEIKIKGKPVKITNPNIANDLGIGMVHQHFMLVHNFTVTENIILGNEPKKNGKIAVEEAAKEIKQLSEQYGLAVDPHAKIEDISVGMQQRVEILKTLYRGAEILIFDEPTAVLTPQEIHELIQIMKKLVQEGKSIILITHKLKEIMEVCDRCTIIRKGKGIGTVDVAETDEHKLAELMVGRQVNFKTEKIEAKPMEEVLSIANLIVHDTRKLPAVKGLDLTVRAGEIVGIAGIDGNGQSELIEAITGLRKVESGSIAIKGKEITNWPVRRITEEGIGHIPEDRHKHGLVLDFSVRDNIVLQTYYKNPFSKKGILNFSKITEKAKALIEQFDVRTPSEQTLARALSGGNQQKAIIAREVDRNPDLLIAAQPTRGLDVGAIEFIHKKLIEQRDNGKAVLLLSLELDEILNVSDRVAVIYEGKIVAIVDAKETNEQQLGLLMAGGTGKEKVNTNG”, the “soluble on expression in E. coli” value is reported as “not soluble”. With “MKLFQPSEIVTSLPTQFFASLVAKVNKVVAAGHDVINLGQGNPDQPTPQHIVKALQDAAEKTIHHKYPPFRGHESLKEAVATFYQREYDVVVNPKTEVAILFGGKAGLVELPVCFTNPGDTILVPDPGYPDYLSGVALAKAQFETMPLIAENNFLPDYTKIDDSIAERAKLMFLNYPNNPTGATASKDFFDETIHFANKHNILVVHDFAYGAIGFDGQKPVSFLQADGAKDTGIEIYTLSKTFNMAGWRIAFAVGNESVIETINLLQDHMYVSIFGAIQDAAREALLSSQSCVIDLVNSYESRRNALISACHSIGWNVDIPTGSFFAWLPVPEGYTSEQFSDILLEKAHVAVAPGVGFGEHGEGYVRVGLLHTEDRLREAINRIDKLNFFKK” the “soluble on expression in E. coli” value was “not soluble”. With “MDKNWMIAMHNPATIYNPNAQTEFVEFPIYTVLIDHPEGKILFDTACNPNSMGPQGRWAEVTQQMFPWNASEECYLHNRLEQLKVRPEDIRYVVASHLHLDHAGCLEMFTNATIIVHEDEFNGALQCYARNQKEGAYIWADIDAWIKNNLQWRTVKRHEDNILLAEGVRVLNFGSGHAWGMLGLHVELPETGKIILASDAIYTAENYGPPVKPPGIIYDSLGYVNTVERIRRIAQETNSKIWFGHDAEQFKQFRKSTEGYYE” the “soluble on expression in E. coli” value was “not soluble”. For “MEHQTTRNVILITEGSLQSSLLKDVLETKLGINVLLITPENLASPFVRNQSISAIVLDYSVITDEVFARYMEFKTPNLTGTLEILINCDKSISTDELFVWGALAGIFYTSDDIQTLQTGIDKVLQGDMWFSRKFAQQYITHLRRHSRPINKNVPA”, the “soluble on expression in E. coli” value was “not soluble”. For “MFYFRNLDGYTFFSFMKQKPRRNLFIGVPPLEGTCTKEVVHEAIKEILFYSYC”, the “soluble on expression in E. coli” value was “not soluble”. With “SADWARAQSPGAVEEILDRENKRMADSLASKVTRLKSLALDIDRDAEDQNRYLDGMVRAHGVRVSVPCPSTTCCRACSVSFSTGAGGWSNHHFCVILLGFLP” the “soluble on expression in E. coli” value was “soluble”. For “MEQYHKIVLTGSNAETMLIKNIEPVAVKFINNYKGFFYVFKYSKDFPIIDVYINNKIVTENQLNKILQNSGAKYKIYKNSIFNETQGNFGMLGDKYLAEFFKKTNEISLNILNQNFESYNKKIEFALEIMLISAHYNYDSIKKGYLSYASHVNGFFTRWKDPNKIRDIFHKNYLNNKEYLESKVSEIIDNNNRSSLSELSDIITEMKKEMTTDIEKGNLHVFNIELLQKPGERDFLEKSQFHKTILNNPDFSNFMNKDINFLGSRLITVFTYLLIRNLGIQNKDRYLLCYYIYKIIEEKYNIDTLELIRDFGKGRDNNVEDLQRY”, the “soluble on expression in E. coli” value was “not soluble”. With “MAKQSGGKPQIDEDFMKEIISQGLPVKKQETPLVTVETPDKPETVNKEEIKAEPKEEKAVKEPARRKKNTPGDYRETYFMRVDLTDRQPLYVSRTTHEKLMKIVTVIGGRKATVSSYVENILLRHFDQFQDEINELYESKFEKPF” the “soluble on expression in E. coli” value was “soluble”. For “MDILLTLLDDKTSVASDWRILGIISLRGSTPRLAILLQVVQWAAFYCWRNYMSPYKDKRWRSKRDTALRRDKYECRNCKRFGITTTATVVHHVWFLRDYPKWWLCLWNLISLCEKCHNKMHNRDSDIPTELGEYWQDKIKPPTSATKKYFLEHHHHHH”, the “soluble on expression in E. coli” value was “not soluble”. For “GMDKLVKYQELVKKLLTNYASDDVSDQDVEVQLILDTERNHYQWMNVGWQGLNRIYRCVIHFDIKDGKIWLQQNLTDRNPAEELVMMGVPREDIVLGLQAPYKRQYTDYGVA”, the “soluble on expression in E. coli” value was “soluble”. In the case of “SLRVSASMSLVVLTFLLTCFMVRPMTAVTSDPLDFHWPGSRILAVGDLHGDIGNTMLLLYGAGVVDEDGNWIAGDTLLIQTGDVVDRGPDGKRIYDYFASLSAQATEQGGKIIQLLGNHDVMNICGDFRYAHPSETIEFGGALERRRQFMDGGHYGNMLRSFPLSIKANGVIFSHAGIPSDFAVLGLSKLTQQLREELANDCKLHNSRFYNEAMGSSTGDLFVAGSQGPLWTRVYSMGQMTKICEELDKTLGILDSEKMVIGHTVQESGNIEVYCGGRLLLIDTGVSRYVADSPRMLEIRDGTFFEWRLDISKQGTDSEPNVRGSKRQLNIPPLKN”, the “soluble on expression in E. coli” value is reported as “not soluble”. In the case of “MIKVALPKGRLFEETVDLLLKRGIIEKRIEEGRKLILEEGGITFFLVKPSDVPVYVESGVSDLGVCGYDVYLEKKPSVYRLMDLGIGFCRIAVAGKPESEEKYFSSTHISVATKYPNIAYEFFKKKGVKADIYYLNGSVELAPLVGLSDFILDLVQTGRTLKENGLIVIEEVGKSTAWLIANKDSFRIKNGQIMEFLSRLVQHNKDGLQVQGSSLEHHHHHH”, the “soluble on expression in E. coli” value is reported as “not soluble”. With “SCIIFFKFDPRPVSKNAYRLILAANRDEFYSRPSKLADFWGNNNEILSGLDMEEGKEGGTWLGISTRGKLAALTNYLQPQLDWQARGRGELVTHFLTTDVDSLSYLKKVSMEGHLYNGFNLIAANLSTAKGDVICYYGNRGEPDPIVLTPGTYGLSNALLETPWRKLCFGKQLFLEAVERSQALPKDVLIASLLDVLNNKEAQLPDPAIEDQGGEYVQPMLSKYAAVCVRCPGYGTRTNTIILVDADGHVTFTERSMMDKDLSHWETRTYEFTLQS” the “soluble on expression in E. coli” value was “not soluble”. In the case of “MHHHHHHSSGVDLGTENLYFQSMVEDHYEMGEELGSGQFAIVRKCRQKGTGKEYAAKFIKKRRLSSSRRGVSREEIEREVNILREIRHPNIITLHDIFENKTDVVLILELVSGGELFDFLAEKESLTEDEATQFLKQILDGVHYLHSKRIAHFDLKPENIMLLDKNVPNPRIKLIDFGIAHKIEAGNEFKNIFGTPEFVAPEIVNYEPLGLEADMWSIGVITYILLSGASPFLGETKQETLTNISAVNYDFDEEYFSNTSELAKDFIRRLLVKDPKRRMTIAQSLEHSWIKAIRRRNVRGEDSG”, the “soluble on expression in E. coli” value is reported as “soluble”. For “MGSDKIHHHHHHMAKLETFYPIVATPKRAGYKEYLPSAVLTGYIRCFWEADDKNFPGNNLVVPDLCADIIFTIDSKTGLVTDAIFVGVSDAPFESDDESNTELFAVRFYAWSLFLFVEQDLTGSMNRVKEPEEMFAGFVSFFQERFAEMTTNMERIALLEEFLLRKLMMLGKQVHPDFLNGIDKLLQNPNQLALGAVSVRQLERLFQKHMGLAPKQTAKLIRFQKVLQALYENPSVPGAELAYLHGFTDQAHLIKQFKRYSNHTPEEMKQIFLQNVANIQ”, the “soluble on expression in E. coli” value was “not soluble”. With “FLDDINEDALPNDRTGYQDTLIWNKLFNYQKDAATGIINKLESYNGCILADSVGLGKTFTALAVIKYYELRNKSVLVLCPKKLADNWLNYSRNLKTNIFARDRFNYDVLCHTDLSRTSGESFGTPLNRINWGNYDLVIIDESHNFRNNDAYKDKETRYQKLMNKVIKEGVKTKVLMLSATPVNNRFNDLRNQLALAYEGDS” the “soluble on expression in E. coli” value was “not soluble”.
